We go through one molecule from paper PMC9063470, “Ultrasensitive fluorescent aptasensor for CRP detection based on the RNase H assisted DNA recycling signal amplification strategy”.

The target of data set [1] is BNP (UniProt P16860 103-134). Briefly: fluorescent strand-displacement aptasensor (RNase H recycling, GO quenching); 50 ng/mL; negligible signal; 20 mM Tris-HCl, 40 mM KCl, 8 mM MgCl2, 1 mM DTT, pH 7.8; 20 min Ap/P1 + CRP incubation; temperature not stated. The settings on record: label: none (5-FAM is on the reporter RNA S3, not on Ap or P1); partial duplex: P1 (23 nt) pairs with Ap nt 48-70; 47 nt 5' and 2 nt 3' single-stranded Ap overhangs.
BNP, sequence (P16860 103-134): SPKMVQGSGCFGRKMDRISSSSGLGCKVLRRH

Data set [2] deals with T1, MB (UniProt P02144 2-154).
T1 sequence: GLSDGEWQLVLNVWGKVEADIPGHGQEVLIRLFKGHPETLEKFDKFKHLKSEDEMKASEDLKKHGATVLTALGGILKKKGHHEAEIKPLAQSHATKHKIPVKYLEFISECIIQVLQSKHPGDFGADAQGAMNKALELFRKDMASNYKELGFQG
The description is as above. The settings on record: label: none (5-FAM is on the reporter RNA S3, not on Ap or P1); partial duplex: P1 (23 nt) pairs with Ap nt 48-70; 47 nt 5' and 2 nt 3' single-stranded Ap overhangs.

Data set [3] concerns the target T2, C-reactive protein (CRP) (UniProt P02741 19-224).
T2 sequence: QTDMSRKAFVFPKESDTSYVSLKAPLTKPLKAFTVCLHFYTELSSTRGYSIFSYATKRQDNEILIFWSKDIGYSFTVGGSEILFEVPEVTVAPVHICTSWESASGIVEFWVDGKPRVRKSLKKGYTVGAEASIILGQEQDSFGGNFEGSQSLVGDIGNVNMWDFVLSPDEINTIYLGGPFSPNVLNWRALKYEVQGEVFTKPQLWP
In words: fluorescent strand-displacement aptasensor (RNase H recycling, GO quenching); CRP 10 ng/mL; P1 strand released from Ap/P1; 20 mM Tris-HCl, 40 mM KCl, 8 mM MgCl2, 1 mM DTT, pH 7.8; 20 min Ap/P1 + CRP incubation; temperature not stated. The conditions noted are these: chain copies: 5; label: none (5-FAM is on the reporter RNA S3, not on Ap or P1); partial duplex: P1 (23 nt) pairs with Ap nt 48-70; 47 nt 5' and 2 nt 3' single-stranded Ap overhangs.

B1: CRP aptamer (Ap) presented as Ap/P1 complex (mixed)
DNA 1: GGCAGGAAGACAAACATATAATTGAGATCGTTTGATGACTTTGTAAGAGTGTGGAATGGTCTGTGGTGCTGT
DNA 2: AGCACCACAGACCATTCCACACT
With B1, the binding result in data set [1] is on record as “no binding”; in data set [2] it was “no binding”; in data set [3] it was “binds”.
